System: T1, peptide LPETGGG bridging variable regions 4 and 5 (var 4-LPETGGG-var 5)
T1 sequence: LPETGGG

## sortase (Chen et. al, 2011)
  kligation (sortase-catalyzed transpeptidation, loop opening on gel, room temperature): kligation=11±1.3 min
